Reference: EP2009022A1

Columns and labels:
murine CD95 (murine) = murine CD95 (murine) (UniProt P25446); assay: FACS on MBL2-CD95 cells, anti-Flag mAb M2 and PE anti-mouse IgG
human CD95 (human) [1] = target: human CD95 (human) (UniProt P25445); assay: cell-based or functional assay
human CD95 (human) [2] = target: human CD95 (human) (UniProt P25445); assay: FACS on KB cells, anti-Flag mAb M2 and PE anti-mouse IgG
Fc-CD95 (human) = Fc-CD95 (human) (UniProt P25445); assay: SPR (BIAcore 2000), biotinylated Fc-CD95 on streptavidin chip, ligand in solution, 1:1 model
TRAILR1 (human) = TRAILR1 (human) (UniProt O00220); assay: cell-based or functional assay
UniProt O00220, sequence (O00220 24-468): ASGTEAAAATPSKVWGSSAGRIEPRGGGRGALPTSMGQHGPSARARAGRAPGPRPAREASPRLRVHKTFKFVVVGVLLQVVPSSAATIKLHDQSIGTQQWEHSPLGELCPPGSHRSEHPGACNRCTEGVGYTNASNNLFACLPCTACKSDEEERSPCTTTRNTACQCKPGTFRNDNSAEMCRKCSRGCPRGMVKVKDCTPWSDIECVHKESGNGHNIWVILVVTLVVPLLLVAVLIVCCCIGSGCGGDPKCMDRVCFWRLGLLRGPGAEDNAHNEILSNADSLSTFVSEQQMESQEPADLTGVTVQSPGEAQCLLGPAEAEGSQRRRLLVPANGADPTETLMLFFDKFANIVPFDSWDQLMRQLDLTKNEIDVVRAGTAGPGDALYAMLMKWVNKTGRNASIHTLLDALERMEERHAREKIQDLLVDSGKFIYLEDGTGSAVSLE

UniProt P25446, sequence (P25446 22-327): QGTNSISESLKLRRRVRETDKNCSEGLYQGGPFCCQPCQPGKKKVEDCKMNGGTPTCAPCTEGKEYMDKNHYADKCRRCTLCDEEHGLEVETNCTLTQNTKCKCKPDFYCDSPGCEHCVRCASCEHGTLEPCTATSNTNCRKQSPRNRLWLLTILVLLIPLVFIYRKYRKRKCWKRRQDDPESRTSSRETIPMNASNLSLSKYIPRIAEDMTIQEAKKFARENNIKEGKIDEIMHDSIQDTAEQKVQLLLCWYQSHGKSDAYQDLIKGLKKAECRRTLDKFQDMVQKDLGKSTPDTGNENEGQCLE

Substance: Flag-hCD95L(137-281) (ligand)
- lowest concentration with significant binding (murine CD95 (murine)): 0.1 µg/mL
- protection of KB cells from Fc-hCD95L-induced cell death (competition assay) (human CD95 (human) [1]): 50 ng/mL
- lowest concentration with significant binding (human CD95 (human) [2]): 0.3 µg/mL
- Kd (Fc-CD95 (human)): 39 nM

Substance: mCD95L(137-279) (ligand)
- protection of KB cells from Fc-hCD95L-induced cell death (competition assay) (human CD95 (human) [1]): > 1000 ng/mL

Substance: Flag-TNC-mCD95L(137-279) (from UniProt P10039 110-139) (ligand)
- Kd (Fc-CD95 (human)): 26 nM

Substance: Flag-hTRAIL(95-281) (ligand)
- cell death of CHX-sensitized KB cells, no crosslinking (crystal violet) (TRAILR1 (human)): 10 ng/mL
